Test results from US7256012B2, “Fluorogenic protease substrates based on dye-dimerization” (3M Innovative Properties Company, priority 1997, dated 2007).

Experiment: Fluorescence of the intact dual-labeled conjugate versus singly labeled counterpart
Type: physicochemical
Description: SEQ ID NO. 1 Val-Pro-Arg-Gly-Lys was synthesized by GeneMed Biotechnologies (South San Francisco, Calif.) and purified on reverse phase high performance liquid chromatography (HPLC). Its chemical identity was confirmed by Fast Atom Bombardment (FAB) mass spectroscopy and amino acid analysis. The peptide was reacted overnight with tetramethylrhodamine succimidyl ester in 0.1M sodium bicarbonate, pH 8.3. The reaction mixture was purified on reversed phase HPLC (C-18 column, particle size 15 μm, Waters Corp., Milford, Mass.). All chemically reactive dyes were purchased from Molecular Probes, Eugene, Oreg. The dye-peptide conjugate had the chemical structure of SEQ ID NO. 2 TMR-Val-Pro-Arg-Gly-Lys-TMR (designated T-VPRGK-T in FIG. 2) as shown in Formula I, below. A composite gradient of acetonitrile (ACN) in water was used to purify this conjugate. In a typical elution, the acetonitrile content was increased from 15% to 30% during the initial 15 minutes, followed by a 10-minute isocratic elution at 30% ACN, a 5-minute gradient to 50%, then 5-minute isocratic elution at 50% ACN. All solvents contained 0.1% trifluoroacetic acid. The molecular weight of the purified conjugate, determined by FAB mass spectroscopy, was 1379 which was the calculated molecular mass based on the elemental composition of C74H85N13O14.

For “TMR-Val-Pro-Arg-Gly-Lys-TMR (XPRGX; not fully specified; TMR dye at both ends) [T-VPRGK-T]”, the “fluorescence of dual-labeled conjugate versus singly labeled counterpart” value was “substantially lower fluorescence than its singly labeled counterpart”.
